The term stoichiometry N denotes the number of molecules, sites or subunits per partner or assembly.

This data set concerns the molecule itself. Kind of data set: PORT-HS-AFM.

B1: Chlamydomonas reinhardtii SAS-6[NL] homodimer (domain or fragment, UniProt A9CQL4 1-503, looked up)
chain: MPLLLDDGDPKAQTGFDLSTATTLFWRPVPVHVKQQDREDVLEELTFRILTGVAKQNHNLRILRIHISSDSDLFFLHTLEVSEEDFQSLKNDQGILVDFASFPGKIISLLEKCILAQPGDSPRFQAVLTIRGGESVFKIVEINDFKQLPHITLAFRPGNDSVVKQFLAFRLSEVKGTCHDLSDDLSRTRDDRDSMVAQLAQCRQQLAQLREQYDKHLLEVQAQAKTQQASAHEERIREKSQLKDQFEKERGEMEGRYRDQIAALNTRLGELDTENRKLREVKYELDTKVSELSHKLGSSEGSNRSLEEETARLRSLNQQLSSSKHELEIQLNEAKAKVLALDEKAQSQGDVIEQQRGRLRDMEAALRQTEQRCADLRDTLASAEGRAKEAQAEVLKGNQAIEKLTNDLRLAKEKTKRKAAIILRQEEELQEREQSLANATRDVGVLGQQAESLRKDVASLHSENDSLRSKLEDSKQQLQSNEQMIRWLNQQVTEAQLHASGAT
Turning to B1, the “stoichiometry N” value fell in the range of 7 to 10 homodimers.
